Data taken from US20170202936A1 (VAXON BIOTECH, published 2017).

B1: Her2/neu246A1 (peptide)
peptide: APKHSDCLA
notes: Synthetic optimized peptide; Her2/neu246 with A at position 1
B2: Her2/neu1069L9 (peptide)
peptide: APRSPLAPL
notes: Synthetic optimized peptide; Her2/neu1069 with L at the C-terminal position
B3: Hsp70115A1R3 (peptide)
peptide: APREISSMVL
notes: Hsp70 115 with A at position 1 and R at position 3

Target: T1, HLA-B*0702 (human)
T1 construct: MHC class I molecule on T2-B7 cells; also called HLA-B7
Assay: assay not given

Question: Does B1 bind?
Answer: Result: binds

Target: T1, HLA-B*0702
Assay: T2-B7 cells, HLA-B*0702 surface expression (ME-1 mAb); ratio to reference peptide CMV265-274 (SEQ ID NO: 9)
From the text: (§1) The protocol used has been described previously (Rohrlich et al., 2003).

Question: How did the “RA (relative affinity)” value turn out when APRRLVQLL (TERT444 with A at position 1) [TERT444A1] was run?
Answer: Its value is 1.4 ratio.

Question: YPEEISSMVL (also called Hsp115) [Hsp70 115] was tested. Which “RA (relative affinity)” value did it give?
Answer: Its value is over 10 ratio.

Question: With APRCRAVRSL [TERT4] as the binder, how does the “RA (relative affinity)” value read?
Answer: The value was 0.74 ratio.

Question: Which “RA (relative affinity)” value does the source give for YPVTNAVITV (also called Hsp137) [Hsp70 137 (10)] here?
Answer: Its value is over 10 ratio.

Target: T1, HLA-B*0702
Assay: RA grade (++ = RA < 1), T2-B7 cells, ME-1 mAb staining
From the text: as §1

Question: Which “relative affinity (RA): ratio of peptide concentration to reference peptide concentration inducing 20% of HLA-B*0702 expression” value does the source give for APRSLGLEL [Hsp70397R3L9] here?
Answer: The value was under 1 ratio.

Question: With APRVSIRLPL [APRVSIRLPL (SEQ ID NO: 46)] as the binder, how does the “relative affinity (RA): ratio of peptide concentration to reference peptide concentration inducing 20% of HLA-B*0702 expression” value read?
Answer: Its value is under 1 ratio.

Question: How did the “relative affinity (RA): ratio of peptide concentration to reference peptide concentration inducing 20% of HLA-B*0702 expression” value turn out when B2 was run?
Answer: Its value is under 1 ratio.

Question: Which “relative affinity (RA): ratio of peptide concentration to reference peptide concentration inducing 20% of HLA-B*0702 expression” value does the source give for APRMHCAVDL [APRMHCAVDL (SEQ ID NO: 45)] here?
Answer: Its value is under 1 ratio.

Target: T1, HLA-B*0702
Assay: RA grade (+ = 1 < RA < 10), T2-B7 cells, ME-1 mAb staining
From the text: as §1

Question: Which “relative affinity (RA): ratio of peptide concentration to reference peptide concentration inducing 20% of HLA-B*0702 expression” value does the source give for APRPWTPCL [APRPWTPCL (SEQ ID NO: 52)] here?
Answer: Its value is 1 to 10 ratio.

Question: With APRTKAEML [APRTKAEML (SEQ ID NO: 57)] as the binder, how does the “relative affinity (RA): ratio of peptide concentration to reference peptide concentration inducing 20% of HLA-B*0702 expression” value read?
Answer: Its value is 1 to 10 ratio.

Question: Which “relative affinity (RA): ratio of peptide concentration to reference peptide concentration inducing 20% of HLA-B*0702 expression” value does the source give for APRRLVQLL (TERT444 with A at position 1) [TERT444A1] here?
Answer: The value was 1 to 10 ratio.

Question: For APREYVNAL [APREYVNAL (SEQ ID NO: 47)], which “relative affinity (RA): ratio of peptide concentration to reference peptide concentration inducing 20% of HLA-B*0702 expression” value is on record?
Answer: The value was 1 to 10 ratio.

Question: With APRRRLGCEL [APRRRLGCEL (SEQ ID NO: 51)] as the binder, how does the “relative affinity (RA): ratio of peptide concentration to reference peptide concentration inducing 20% of HLA-B*0702 expression” value read?
Answer: The value was 1 to 10 ratio.

Question: For APRALVETL [APRALVETL (SEQ ID NO: 49)], which “relative affinity (RA): ratio of peptide concentration to reference peptide concentration inducing 20% of HLA-B*0702 expression” value is on record?
Answer: The value was 1 to 10 ratio.

Question: For APRCRAVRSL [TERT4], which “relative affinity (RA): ratio of peptide concentration to reference peptide concentration inducing 20% of HLA-B*0702 expression” value is on record?
Answer: The value was 1 to 10 ratio.

Question: How did the “relative affinity (RA): ratio of peptide concentration to reference peptide concentration inducing 20% of HLA-B*0702 expression” value turn out when B3 was run?
Answer: The value was 1 to 10 ratio.
